{"source": "paper doi:10.1101/2021.08.20.457084", "key": {"[1]": {"target": "CsGSIb EVK138DIQ mutant (Camellia sinensis)", "assay": "AUC"}, "[2]": {"target": "CsGSIb EVK138DIQ mutant (Camellia sinensis)", "assay": "SEC-MALS"}, "[3]": {"target": "CsGSIb I143L mutant (Camellia sinensis)", "assay": "AUC"}, "[4]": {"target": "CsGSIb I143L mutant (Camellia sinensis)", "assay": "SEC-MALS"}, "[5]": {"target": "glutamine synthetase CsGSIb from Camellia sinensis, wild type (Camellia sinensis)", "assay": "negative-stain electron microscopy"}, "[6]": {"target": "glutamine synthetase CsGSIb from Camellia sinensis, wild type (Camellia sinensis)", "assay": "AUC"}, "[7]": {"target": "glutamine synthetase CsGSIb from Camellia sinensis, wild type (Camellia sinensis)", "assay": "SEC-MALS"}, "[8]": {"target": "glutamine synthetase CsGSIb from Camellia sinensis, wild type (Camellia sinensis)", "assay": "cryo-EM structure"}, "[9]": {"target": "glutamine synthetase CsGSIb from Camellia sinensis, wild type (Camellia sinensis)", "assay": "cryo-EM structure", "remark": "listed apart in the source"}, "[10]": {"target": "glutamine synthetase GmGSβ2 from Glycine max (Glycine max)", "assay": "negative-stain electron microscopy"}, "[11]": {"target": "glutamine synthetase GmGSβ2 from Glycine max (Glycine max)", "assay": "SEC-MALS"}, "[12]": {"target": "glutamine synthetase GmGSβ2 from Glycine max (Glycine max)", "assay": "cryo-EM structure"}}, "note": "“And” between values parts separate entries of the source, which are not always exact repeats. Equal values may be shown once.", "data": [{"substance": "CsGSIb EVK138DIQ mutant (enzyme)", "values": [{"measurement": "Kd", "setting": "[1]", "result": 40, "unit": "nM"}, {"measurement": "percent of the protein in the decameric state", "setting": "[2]", "result": 72, "unit": "%"}, {"measurement": "stoichiometry N", "setting": "[2]", "result": 10}]}, {"substance": "CsGSIb I143L mutant (enzyme)", "values": [{"measurement": "Kd", "setting": "[3]", "result": 10, "unit": "nM"}, {"measurement": "percent of the protein in the decameric state", "setting": "[4]", "result": "> 95", "unit": "%"}, {"measurement": "stoichiometry N", "setting": "[4]", "result": 10}]}, {"substance": "glutamine synthetase CsGSIb from Camellia sinensis, wild type (enzyme)", "values": [{"measurement": "stoichiometry N", "setting": "[5]", "result": "5 and 10"}, {"measurement": "Kd", "setting": "[6]", "result": 270, "unit": "nM"}, {"measurement": "stoichiometry N", "setting": "[6]", "result": "10 and 5"}, {"measurement": "percent of the protein in the decameric state", "setting": "[7]", "result": 18, "unit": "%"}, {"measurement": "percent of the protein in the pentameric state", "setting": "[7]", "result": 82, "unit": "%"}, {"measurement": "stoichiometry N", "setting": "[7]", "result": "5 and 10"}, {"measurement": "stoichiometry N", "setting": "[8]", "result": 10}, {"measurement": "stoichiometry N", "setting": "[9]", "result": 5}]}, {"substance": "glutamine synthetase GmGSβ2 from Glycine max (enzyme)", "values": [{"measurement": "stoichiometry N", "setting": "[10]", "result": 10}, {"measurement": "stoichiometry N", "setting": "[11]", "result": 10}, {"measurement": "stoichiometry N", "setting": "[12]", "result": 10}]}]}
